# In patent US10722576 (dated 2020):
# Like-named read-outs stand apart in the source and are kept apart here.
# T1: human TfR-2 (human, UniProt Q9UP52)
# T1 chain: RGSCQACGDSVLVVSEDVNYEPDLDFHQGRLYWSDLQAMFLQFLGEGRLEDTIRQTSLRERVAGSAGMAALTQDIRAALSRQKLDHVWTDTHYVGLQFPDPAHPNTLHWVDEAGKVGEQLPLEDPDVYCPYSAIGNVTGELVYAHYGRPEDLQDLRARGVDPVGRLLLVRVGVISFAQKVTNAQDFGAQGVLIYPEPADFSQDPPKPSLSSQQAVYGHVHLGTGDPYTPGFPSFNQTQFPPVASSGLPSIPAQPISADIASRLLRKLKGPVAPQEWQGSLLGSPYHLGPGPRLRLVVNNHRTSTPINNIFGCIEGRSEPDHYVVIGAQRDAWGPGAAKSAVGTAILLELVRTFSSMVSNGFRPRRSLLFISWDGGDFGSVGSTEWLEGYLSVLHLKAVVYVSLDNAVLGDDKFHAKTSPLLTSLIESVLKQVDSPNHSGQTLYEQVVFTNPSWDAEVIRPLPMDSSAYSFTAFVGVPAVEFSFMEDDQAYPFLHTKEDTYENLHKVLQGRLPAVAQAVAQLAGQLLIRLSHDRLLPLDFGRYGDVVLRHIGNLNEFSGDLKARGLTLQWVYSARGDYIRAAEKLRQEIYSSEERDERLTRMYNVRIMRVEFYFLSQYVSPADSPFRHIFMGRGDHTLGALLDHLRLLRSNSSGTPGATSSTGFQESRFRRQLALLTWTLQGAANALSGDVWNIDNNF
# What was measured:
# Assay in all cases: ELISA
# mouse TfR-1 [1] = target: T2, mouse TfR-1 (mouse, UniProt Q62351)
# T2 sequence (Q62351 89-763): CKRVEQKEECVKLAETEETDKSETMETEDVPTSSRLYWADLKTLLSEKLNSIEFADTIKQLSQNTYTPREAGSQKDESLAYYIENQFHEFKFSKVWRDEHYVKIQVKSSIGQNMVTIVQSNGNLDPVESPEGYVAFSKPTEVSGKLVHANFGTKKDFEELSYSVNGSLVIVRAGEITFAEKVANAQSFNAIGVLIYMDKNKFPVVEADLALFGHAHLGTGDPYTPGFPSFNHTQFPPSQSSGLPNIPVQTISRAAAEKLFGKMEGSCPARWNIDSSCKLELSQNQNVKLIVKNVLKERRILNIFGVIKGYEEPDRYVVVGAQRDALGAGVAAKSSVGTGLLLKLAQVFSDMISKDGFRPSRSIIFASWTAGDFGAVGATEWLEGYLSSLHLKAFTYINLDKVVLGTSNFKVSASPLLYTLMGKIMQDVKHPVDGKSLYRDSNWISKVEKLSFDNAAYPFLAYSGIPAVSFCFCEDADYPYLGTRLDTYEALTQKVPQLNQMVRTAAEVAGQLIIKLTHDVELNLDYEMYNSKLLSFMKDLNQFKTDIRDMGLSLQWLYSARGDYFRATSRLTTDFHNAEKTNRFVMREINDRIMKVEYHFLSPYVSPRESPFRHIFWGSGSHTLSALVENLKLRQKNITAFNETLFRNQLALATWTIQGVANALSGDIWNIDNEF
# human TfR-1 [2] = target: T3, human TfR-1 (human, UniProt P02786)
# T3 sequence (P02786 89-760): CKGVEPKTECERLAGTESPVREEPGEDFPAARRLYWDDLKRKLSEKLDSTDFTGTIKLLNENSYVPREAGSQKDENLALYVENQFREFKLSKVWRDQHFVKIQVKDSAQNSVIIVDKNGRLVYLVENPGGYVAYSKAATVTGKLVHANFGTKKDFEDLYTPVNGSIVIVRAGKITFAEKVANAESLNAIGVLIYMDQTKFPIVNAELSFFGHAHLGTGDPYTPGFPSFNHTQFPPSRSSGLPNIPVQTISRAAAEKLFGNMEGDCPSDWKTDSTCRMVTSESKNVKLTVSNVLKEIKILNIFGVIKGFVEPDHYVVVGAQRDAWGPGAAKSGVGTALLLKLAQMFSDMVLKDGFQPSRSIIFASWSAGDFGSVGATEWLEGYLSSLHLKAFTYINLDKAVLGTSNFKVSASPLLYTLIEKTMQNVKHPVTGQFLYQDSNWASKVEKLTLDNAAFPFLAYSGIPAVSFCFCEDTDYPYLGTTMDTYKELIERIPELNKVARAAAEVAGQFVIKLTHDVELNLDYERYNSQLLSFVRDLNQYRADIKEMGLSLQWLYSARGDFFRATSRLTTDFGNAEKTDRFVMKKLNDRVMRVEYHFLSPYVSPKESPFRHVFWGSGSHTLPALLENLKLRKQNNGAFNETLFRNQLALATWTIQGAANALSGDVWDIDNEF
# mouse TfR-1 [3] = target: T2, mouse TfR-1; remark: listed apart in the source
# human TfR-1 [4] = target: T3, human TfR-1; remark: listed apart in the source
# human TfR-2 = target: T1, human TfR-2
# human TfR-1 [5] = target: T3, human TfR-1; remark: listed apart in the source
EC50 (mouse TfR-1 [1]),EC50 (human TfR-1 [2]),EC50 (mouse TfR-1 [3]),EC50 (human TfR-1 [4]),binding result (human TfR-2),EC50 (human TfR-1 [5]),Binder
34.3 nM,26.3 nM,34.2 nM,9 nM,no binding,~100 nM,F02-hFc (designed binder) ARVDQTPQTITKETGESLTINCVLRDNDCTLSSTHWYRKKSGSTNEERISKGGRYVETVNSGSKSFSLRINDLTVEDSGTYRCNVYAMTRNWWCDVYGGGTVVTVNAASGA
–,–,–,–,no binding,~100 nM,H01-Fc (designed binder) ARVDQTPQTITKETGESLTINCVLRDSNCALSSTYWYRKKSGSTKEESISKGGRYVETVNSGSKSFSLRINDLTVEDSGTYRCNVWHDLVWSVCTTDVYGGGTVVTVNAASGA
